Values of other authors in patent US20250326839A1, “TREATMENT OF DISEASES RELATED TO COLONY-STIMULATING FACTOR 1 RECEPTOR DYSFUNCTION USING TREM2 AGONISTS” (Vigil Neuroscience, Inc., priority 2020, published 2025).
Substitutions are numbered along the chain they refer to. Names and notes keep the numbering of the source.

T1: TREM2 (Homo sapiens, UniProt Q9NZC2)
T1 sequence (Q9NZC2 19-230): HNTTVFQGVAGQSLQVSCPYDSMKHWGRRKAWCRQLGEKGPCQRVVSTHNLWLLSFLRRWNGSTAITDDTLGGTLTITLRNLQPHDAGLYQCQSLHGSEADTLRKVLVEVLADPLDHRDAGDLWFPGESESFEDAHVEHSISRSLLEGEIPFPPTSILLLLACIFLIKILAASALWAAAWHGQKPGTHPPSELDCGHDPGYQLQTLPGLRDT

B1: V49: 6E7 variant: VH T30N, I50T, Y60L, Q99S; VL L54R, F94Y (antibody, V domains shown)
VH: EVQLVQSGAEVKKPGESLKISCKGSGYSFNSYWIAWVRQMPGKGLEWMGTIYPGDSDTRLSPSFQGQVTISADKSISTAYLQWSSLKASDTAMYFCARSRTFYYDSSDYFDYWGQGTLVTVSS
VL: DIQMTQSPSSVSASVGDRVTITCRASQGISSWLAWYQQKPGKAPKLLIYAASSRQNGVPSRFSGSGSGTDFTLTISSLQPEDFATYFCQQADSYPRTFGQGTKLEIK
B2: V85: 6E7 variant: VH T30R, I50T, Q99S; VL L54R (antibody, V domains shown)
VH: B1 VH with N30R, L60Y
VL: B1 VL with Y94F
B3: V51: 6E7 variant: VH T58V, Q99G, Y112N; VL L54R (antibody, V domains shown)
VH: B1 VH with N30T, T50I, T58V, L60Y, S99G, Y112N
VL: B1 VL with Y94F
B4: V76: 6E7 variant: VH T30G, S63E, F110S; VL N56K (antibody, V domains shown)
VH: B1 VH with N30G, T50I, L60Y, S63E, S99Q, F110S
VL: B1 VL with R54L, N56K, T69R, Y94F
B5: V64: 6E7 variant: VH T30Q, Q99G; VL Q55A, F94Y (antibody, V domains shown)
VH: B1 VH with N30Q, T50I, L60Y, S99G
VL: B1 VL with R54L, Q55A
B6: V75: 6E7 variant: VH Q99G; VL N56A, F94Y (antibody, V domains shown)
VH: B1 VH with N30T, T50I, L60Y, S99G
VL: B1 VL with R54L, N56A
B7: V62: 6E7 variant: VH T30G, S61A, D108G; VL N56R, Q89G (antibody, V domains shown)
VH: B1 VH with N30G, T50I, L60Y, S61A, S99Q, D108G
VL: B1 VL with R54L, N56R, Q89G, Y94F
B8: V73: 6E7 variant: VH T30G, S63G, Q99G; VL L54R, F94Y (antibody, V domains shown)
VH: B1 VH with N30G, T50I, L60Y, S63G, S99G
VL: B1 VL
B9: V63: 6E7 variant: VH T30R, Q99S; VL N56R, S93R (antibody, V domains shown)
VH: B1 VH with N30R, T50I, L60Y
VL: B1 VL with R54L, N56R, S93R, Y94F
B10: V52: 6E7 variant: VH T30E, Q99G; VL N56R, S93R (antibody, V domains shown)
VH: B1 VH with N30E, T50I, L60Y, S99G
VL: B1 VL with R54L, N56R, S93R, Y94F
B11: V84: 6E7 variant: VH S28G, F110S; VL A50G (antibody, V domains shown)
VH: B1 VH with S28G, N30T, T50I, L60Y, S99Q, F110S
VL: B1 VL with A50G, R54L, Y94F
B12: V86: 6E7 variant: VH T30G, I34L, Q65E, Q99S; VL L54R (antibody, V domains shown)
VH: B1 VH with N30G, I34L, T50I, L60Y, Q65E
VL: B1 VL with Y94F
B13: V72: 6E7 variant: VH A35G, Q99G; VL Q55V, F94Y (antibody, V domains shown)
VH: B1 VH with N30T, A35G, T50I, L60Y, S99G
VL: B1 VL with R54L, Q55V
B14: V61: 6E7 variant: VH T30S, S61N, Q99G; VL Q55V, F94L (antibody, V domains shown)
VH: B1 VH with N30S, T50I, L60Y, S61N, S99G
VL: B1 VL with R54L, Q55V, Y94L
B15: V74: 6E7 variant: VH T30A, T58V, Q99G; VL N56L (antibody, V domains shown)
VH: B1 VH with N30A, T50I, T58V, L60Y, S99G
VL: B1 VL with R54L, N56L, Y94F
B16: V60: 6E7 variant: VH S28H, T58V, F110S; VL N56R, Q89G (antibody, V domains shown)
VH: B1 VH with S28H, N30T, T50I, T58V, L60Y, S99Q, F110S
VL: B1 VL with R54L, N56R, Q89G, Y94F
B17: V50: 6E7 variant: VH T30G, I50V, F110L; VL L54R, F94L (antibody, V domains shown)
VH: B1 VH with N30G, T50V, L60Y, S99Q, F110L
VL: B1 VL with Y94L

Target: T1, TREM2
Conditions: 1st screen, 10 nM Ab concentration (values not marked *); cited from earlier work

Row | Molecule | Binding Signal (fold over 6E7 parental antibody) 1st screen 110 nM or 10 nM
1 | B1 | 6.51 fold over 6E7 parental antibod
2 | B2 | 5.41 fold over 6E7 parental antibod
3 | B3 | 2.81 fold over 6E7 parental antibod
4 | B4 | 4.57 fold over 6E7 parental antibod
5 | B5 | 5.41 fold over 6E7 parental antibod
6 | B6 | 4.64 fold over 6E7 parental antibod
7 | B7 | 2.49 fold over 6E7 parental antibod
8 | B8 | 5.12 fold over 6E7 parental antibod
9 | B9 | 3.76 fold over 6E7 parental antibod
10 | B10 | 3.00 fold over 6E7 parental antibod
11 | B11 | 1.44 fold over 6E7 parental antibod
12 | B12 | 4.80 fold over 6E7 parental antibod
13 | B13 | 3.64 fold over 6E7 parental antibod
14 | B14 | 5.08 fold over 6E7 parental antibod
15 | B15 | 3.94 fold over 6E7 parental antibod
16 | B16 | 3.26 fold over 6E7 parental antibod
17 | B17 | 4.10 fold over 6E7 parental antibod

Same assay, conditions: 2nd screen, 2 nM; cited from earlier work

Row | Molecule | Binding Signal (fold over 6E7 parental antibody) 2nd screen 2 nM
18 | B1 | 5.02 fold over 6E7 parental antibod
19 | B2 | 5.41 fold over 6E7 parental antibod
20 | B3 | 1.83 fold over 6E7 parental antibod
21 | B4 | 4.34 fold over 6E7 parental antibod
22 | B5 | 4.88 fold over 6E7 parental antibod
23 | B6 | 3.74 fold over 6E7 parental antibod
24 | B7 | 1.87 fold over 6E7 parental antibod
25 | B8 | 4.17 fold over 6E7 parental antibod
26 | B9 | 4.91 fold over 6E7 parental antibod
27 | B10 | 1.78 fold over 6E7 parental antibod
28 | B11 | 1.45 fold over 6E7 parental antibod
29 | B12 | 5.17 fold over 6E7 parental antibod
30 | B13 | 2.50 fold over 6E7 parental antibod
31 | B14 | 3.63 fold over 6E7 parental antibod
32 | B15 | 2.54 fold over 6E7 parental antibod
33 | B16 | 3.35 fold over 6E7 parental antibod
34 | B17 | 3.39 fold over 6E7 parental antibod

Same assay, conditions: 2nd screen, 10 nM; cited from earlier work

Row | Molecule | Binding Signal (fold over 6E7 parental antibody) 2nd screen 10 nM
35 | B1 | 6.58 fold over 6E7 parental antibod
36 | B2 | 5.37 fold over 6E7 parental antibod
37 | B3 | 3.18 fold over 6E7 parental antibod
38 | B4 | 4.93 fold over 6E7 parental antibod
39 | B5 | 5.48 fold over 6E7 parental antibod
40 | B6 | 4.52 fold over 6E7 parental antibod
41 | B7 | 2.89 fold over 6E7 parental antibod
42 | B8 | 5.44 fold over 6E7 parental antibod
43 | B9 | 3.71 fold over 6E7 parental antibod
44 | B10 | 3.09 fold over 6E7 parental antibod
45 | B11 | 1.62 fold over 6E7 parental antibod
46 | B12 | 5.02 fold over 6E7 parental antibod
47 | B13 | 4.01 fold over 6E7 parental antibod
48 | B14 | 5.22 fold over 6E7 parental antibod
49 | B15 | 4.01 fold over 6E7 parental antibod
50 | B16 | 3.63 fold over 6E7 parental antibod
51 | B17 | 4.16 fold over 6E7 parental antibod
